Laboratory results as given in patent publication US20240124586A1 (WUXI BIOLOGICS IRELAND, published 2024).
Where a chain is given by its changes, count along the chain named.

Assays:
[1] = target: T1, FcγRI (UniProt P12314 16-288, limits assumed); test: SPR (Biacore), receptor captured on anti-his chip, 1:1 model
T1 construct: His-tagged by the capture method
Procedure: (§1) Antibody binding affinity to FcγRs was detected using Biacore T200 (or Biacore 8K). Each receptor was captured on an anti-his antibody immobilized CM5 sensor chip (GE). Antibodies at different concentrations were injected over the sensor chip at a flow rate of 30 uL/min for an association phase of 60 s, followed by 60 s dissociation. The chip was then regenerated by 10 mM glycine (pH 1.5) after each binding cycle.
(§2) The sensorgrams of blank surface and buffer channel were subtracted from the test sensorgrams. The experimental data was fitted by 1:1 model using Langmiur analysis (for FcγRI) or steady state model (for other receptors). Molecular weight of 150 KDa was used to calculate the molar concentration of antibodies.

[2] = target: T2, FcγRIIb (UniProt P31994 46-217, limits assumed); test: SPR (Biacore), receptor captured on anti-his chip, steady state model
T2 sequence (looked up): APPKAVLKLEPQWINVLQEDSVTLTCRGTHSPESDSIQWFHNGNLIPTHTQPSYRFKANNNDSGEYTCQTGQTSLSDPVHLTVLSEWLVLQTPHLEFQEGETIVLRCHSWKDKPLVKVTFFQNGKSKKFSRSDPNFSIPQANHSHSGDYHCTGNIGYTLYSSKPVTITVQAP
Procedure: as §1, §2

[3] = target: FcγRIIIa (V176) (UniProt P08637 17-208); test: as above
Chain of FcγRIIIa (V176) (P08637 17-208 F176V limits assumed): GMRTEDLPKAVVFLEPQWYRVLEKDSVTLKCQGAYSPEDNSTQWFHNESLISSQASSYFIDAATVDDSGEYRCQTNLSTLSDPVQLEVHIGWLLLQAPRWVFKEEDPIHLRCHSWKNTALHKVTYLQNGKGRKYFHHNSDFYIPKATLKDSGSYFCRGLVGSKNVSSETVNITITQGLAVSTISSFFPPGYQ
Procedure: as §1, §2

[4] = target: T3, FcγRIIa (H167) (UniProt P12318 36-218, limits assumed); test: as above
T3 sequence (looked up): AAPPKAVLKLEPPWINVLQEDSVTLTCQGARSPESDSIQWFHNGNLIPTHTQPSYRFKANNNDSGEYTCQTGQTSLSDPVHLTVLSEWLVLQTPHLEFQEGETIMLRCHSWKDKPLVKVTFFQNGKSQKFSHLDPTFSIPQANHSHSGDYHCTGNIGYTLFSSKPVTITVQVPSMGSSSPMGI
Procedure: as §1, §2

[5] = target: T4, FcγRIIa (R167) (UniProt P12318 36-218, limits assumed); test: as above
T4 sequence (looked up): T3 sequence (looked up) with H132R
Procedure: as §1, §2

[6] = target: FcγRIIIa (F176) (UniProt P08637 17-208); test: as above
Chain of FcγRIIIa (F176) (P08637 17-208 limits assumed): as the sequence (P08637 17-208 F176V limits assumed) above, with V160F counted along it
Procedure: as §1, §2

[7] = target: FcγRIIIb (UniProt O75015 17-200, limits assumed); test: as above
Chain of FcγRIIIb (O75015 17-200 limits assumed): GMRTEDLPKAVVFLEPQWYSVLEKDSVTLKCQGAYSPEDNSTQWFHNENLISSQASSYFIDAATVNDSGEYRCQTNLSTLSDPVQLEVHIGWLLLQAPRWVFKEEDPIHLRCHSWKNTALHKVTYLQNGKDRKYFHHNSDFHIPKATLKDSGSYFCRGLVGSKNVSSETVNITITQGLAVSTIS
Procedure: as §1, §2

[8] = target: T5, human PD-1 on engineered CHO-S cells (W305-CHO-S.hPro1.C6) (human, UniProt Q15116 25-288); test: FACS on human PD-1 engineered cells
T5 construct: whole, on cells; also called human PD-1 engineered cells; PD-1+ cells
T5 sequence (Q15116 25-288, change not shown): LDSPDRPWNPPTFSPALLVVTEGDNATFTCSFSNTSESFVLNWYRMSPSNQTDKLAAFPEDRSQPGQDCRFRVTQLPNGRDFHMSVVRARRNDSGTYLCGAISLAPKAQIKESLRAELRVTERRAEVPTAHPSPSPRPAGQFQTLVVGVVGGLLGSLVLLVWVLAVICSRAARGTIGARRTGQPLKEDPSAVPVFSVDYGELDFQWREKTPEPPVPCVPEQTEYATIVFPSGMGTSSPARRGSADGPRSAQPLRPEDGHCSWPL
Procedure: (§3) Engineered human PD-1 expressing cells W305-CHO-S.hPro1.C6 were seeded at 1×10⁵ cells/well in U-bottom 96-well plates (COSTAR 3799). Antibodies with 3.16-fold titration in 1% BSA DPBS from 200 nM to 0.002 nM were added to the cells. The plates were incubated at 4° C. for 1 hour. After wash, […] 1:125 diluted PE-labeled goat anti-human antibody (Jackson 109-115-098) was added to each well and the plates were incubated at 4° C. for 1 hour. The binding of the antibodies onto the cells was tested by flow cytometry and the mean fluorescence intensity (MFI) was analyzed by FlowJo.

[9] = target: CTLA-4 (competition assays of Example 15) (UniProt P16410 36-161, limits assumed); test: FACS competition: antibody titrated against CD80 binding to CTLA-4
Chain of CTLA-4 (competition assays of Example 15) (P16410 36-161 limits assumed): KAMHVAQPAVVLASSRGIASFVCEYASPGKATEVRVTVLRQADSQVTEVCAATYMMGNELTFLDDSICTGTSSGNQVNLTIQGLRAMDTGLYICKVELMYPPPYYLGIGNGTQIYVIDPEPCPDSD

[10] = target: T5, human PD-1 on engineered CHO-S cells …; test: FACS competition: antibody titrated against human PD-L1 binding to PD-1; falling curve, half-maximal value labelled EC50 on the sheet
Procedure: In order to test whether the bispecific antibodies could block hPD-L1 binding to hPD-1 protein, a competitive FACS was conducted. […] Plates were incubated at 4° C. for 1 hour. After wash, the binding of W315-hPro1.ECD.mFc to cell expressive human PD-1 was detected by FITC-labeled goat anti-mouse antibody (abcam 98716 1:125). The competition binding of antibodies to the cells was tested by flow cytometry and the mean fluorescence intensity (MFI) was analyzed by FlowJo.

[11] = target: T6, human CTLA-4 on engineered 293F cells (W316-293F.hPro1.FL) (human, UniProt P16410 36-223); test: FACS on human CTLA-4 engineered cells, against benchmark BMK1
T6 construct: whole, on cells; also called human CTLA-4 engineered cells; CTLA-4+ cells
T6 sequence (P16410 36-223, stated change not applied): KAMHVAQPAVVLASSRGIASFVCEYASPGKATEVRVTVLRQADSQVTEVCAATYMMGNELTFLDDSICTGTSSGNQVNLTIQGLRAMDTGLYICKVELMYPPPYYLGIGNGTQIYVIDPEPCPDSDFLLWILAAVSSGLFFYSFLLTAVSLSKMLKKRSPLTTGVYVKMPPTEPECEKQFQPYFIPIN
Procedure: (§4) 3.16-fold titrated Abs with 1% BSA DPBS from 200 nM to 0.002 nM were added to the cells. Plates were incubated at 4° C. for 1 hour. After wash, […] 1:150 diluted PE-labeled goat anti-human antibody (Jackson 109-115-098) was added to each well and the plates were incubated at 4° C. for 1 hour. The binding of the antibodies onto the cells was tested by flow cytometry and the mean fluorescence intensity (MFI) was analyzed by FlowJo.

[12] = target: T7, human PD-1 ECD mouse Fc fusion (W305-hPro1.ECD.mFc) (human, UniProt Q15116 25-170); test: dual-binding ELISA: human PD-1 ECD coated, antibody titrated, bound antibody detected with biotinylated human CTLA-4 ECD and streptavidin-HRP
T7 construct: extracellular domain; In-house protein; also called hPD-1-ECD; human PD-1 coated on the plate
T7 sequence (Q15116 25-170): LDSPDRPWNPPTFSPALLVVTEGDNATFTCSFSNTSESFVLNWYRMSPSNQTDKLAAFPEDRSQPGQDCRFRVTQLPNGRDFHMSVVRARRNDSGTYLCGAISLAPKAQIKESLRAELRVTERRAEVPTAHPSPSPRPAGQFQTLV
Procedure: In order to test whether the bispecific antibodies could bind to both hPD-1 and hCTLA-4, an ELISA assay was developed as below. A 96-well ELISA plate (Nunc MaxiSorp, ThermoFisher) was coated overnight at 4° C. with 0.5 μg/ml antigen-1 (hPD-1-ECD, W305-hPro1.ECD.mFc) in carbonate-bicarbonate buffer. After a 1 hour blocking step with 2% (w/v) bovine serum albumin (Pierce) dissolved in PBS, serial dilutions of the different PD-1×CTLA-4 bispecific antibodies in PBS containing 2% BSA PBS were incubated on the plates for 1 hour at room temperature. Following the incubation, plates were washed three times with 300 μL per well of PBS containing 0.5% (v/v) Tween 20. […] After washing the plates three times, Streptavidin-HRP (Lifetechnologies, #SNN1004) (1:20000 diluted) was added and incubated on the plates for 1 hour at room temperature. After washing six times with […] per well of PBS containing 0.5% (v/v) Tween 20, 100 μL tetramethylbenzidine (TMB) substrate was added for the detection per well. The reaction was stopped after approximately 5 minutes through the addition of […] per well of 2 M HCl. The absorbance of the wells was measured at 450 nm with a multiwall plate reader (SpectraMax® M5e).

[13] = target: T6, human CTLA-4 on engineered 293F cells …; test: FACS on human CTLA-4 engineered cells
Procedure: as §4

[14] = target: T6, human CTLA-4 on engineered 293F cells …; test: ELISA binding to human CTLA-4 (legend says 'engineered cells'; the form of the antigen in the ELISA is not described)
[15] = target: T5, human PD-1 on engineered CHO-S cells …; test: ELISA binding to human PD-1 (legend says 'engineered cells'; the form of the antigen in the ELISA is not described)
[16] = target: T5, human PD-1 on engineered CHO-S cells …; test: FACS binding to human PD-1 engineered cells
Procedure: as §3

[17] = target: T6, human CTLA-4 on engineered 293F cells …; test: FACS binding to human CTLA-4 engineered cells
Procedure: as §4

T1 sequence (P12314 16-288 limits assumed): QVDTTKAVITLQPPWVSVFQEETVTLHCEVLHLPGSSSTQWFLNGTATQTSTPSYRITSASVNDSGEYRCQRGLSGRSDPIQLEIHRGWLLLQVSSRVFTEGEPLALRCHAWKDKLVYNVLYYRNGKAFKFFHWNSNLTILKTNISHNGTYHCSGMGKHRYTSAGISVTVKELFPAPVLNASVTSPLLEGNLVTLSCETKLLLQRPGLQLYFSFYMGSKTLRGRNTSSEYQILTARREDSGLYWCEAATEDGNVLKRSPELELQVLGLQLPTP

B1: T3U4.E17-2.(2).uIgG1 (E17-Design_2-QQQQ in wild type IgG1 with knobs-into-holes) (bispecific antibody)
heavy 1: not shown
light 1: DIVMTQSPDSLAVSLGERATINCKSSQSLLNSRTRKNYLAWYQQKPGQPPKLLIYWASTRQSGVPDRFSGSGSGTDFTLTISSLQAEDVAVYYCTQSHTLRTFGGGTKVEIKPDIQNPDPAVYQLRDSKSSDKSVCLFTDFDSQTQVSQSKDSDVYITDKCVLDMRSMDFKSNSAVAWSQKSDFACANAFQNSIIPEDTFFPSPESS
heavy 2: QMQLVQSGPEVKKPGTSVKVSCKASGYAFTSYNMYWVRQARGQRLEWIGYIDPYNGDTTYNQKFKGRVTITRDMSTSTAYMELSSLRSEDTAVYYCLTTAYAMDYWGQGTLVTVSSASTKGPSVFPLAPSSKSTSGGTAALGCLVKDYFPEPVTVSWNSGALTSGVHTFPAVLQSSGLYSLSSVVTVPSSSLGTQTYICNVNHKPSNTKVDKRVEPKSCDKTHTCPPCPAPELLGGPSVFLFPPKPKDTLMISRTPEVTCVVVDVSHEDPEVKFNWYVDGVEVHNAKTKPREEQYNSTYRVVSVLTVLHQDWLNGKEYKCKVSNKALPAPIEKTISKAKGQPREPQVCTLPPSREEMTKNQVSLSCAVKGFYPSDIAVEWESNGQPENNYKTTPPVLDSDGSFFLVSKLTVDKSRWQQGNVFSCSVMHEALHNHYTQKSLSLSPGK
light 2: DIQLTQSPSFLSASVGDRVTITCSASSTVNYMHWYQQKPGKAPKLLIYSTSNLASGVPSRFSGSGSGTEFTLTISSLQPEDFATYYCHQWSSYPYTFGQGTKLEIKRTVAAPSVFIFPPSDEQLKSGTASVVCLLNNFYPREAKVQWKVDNALQSGNSQESVTEQDSKDSTYSLSSTLTLSKADYEKHKVYACEVTHQGLSSPVTKSFNRGEC
notes: Order T3-HC / T3-LC / U4-HC / U4-LC; copies: 1 + 1 + 1 + 1
Kd [1]: 1.3 nM
Kd [2]: 8070 nM
Kd [3]: 644 nM
Kd [4]: 3580 nM
Kd [5]: 4830 nM
Kd [6]: 2080 nM
Kd [7]: 5160 nM

B2: U6T5.G25.IgG4, bispecific anti-PD-1 x CTLA-4 (as listed in Example 15) (bispecific antibody)
heavy: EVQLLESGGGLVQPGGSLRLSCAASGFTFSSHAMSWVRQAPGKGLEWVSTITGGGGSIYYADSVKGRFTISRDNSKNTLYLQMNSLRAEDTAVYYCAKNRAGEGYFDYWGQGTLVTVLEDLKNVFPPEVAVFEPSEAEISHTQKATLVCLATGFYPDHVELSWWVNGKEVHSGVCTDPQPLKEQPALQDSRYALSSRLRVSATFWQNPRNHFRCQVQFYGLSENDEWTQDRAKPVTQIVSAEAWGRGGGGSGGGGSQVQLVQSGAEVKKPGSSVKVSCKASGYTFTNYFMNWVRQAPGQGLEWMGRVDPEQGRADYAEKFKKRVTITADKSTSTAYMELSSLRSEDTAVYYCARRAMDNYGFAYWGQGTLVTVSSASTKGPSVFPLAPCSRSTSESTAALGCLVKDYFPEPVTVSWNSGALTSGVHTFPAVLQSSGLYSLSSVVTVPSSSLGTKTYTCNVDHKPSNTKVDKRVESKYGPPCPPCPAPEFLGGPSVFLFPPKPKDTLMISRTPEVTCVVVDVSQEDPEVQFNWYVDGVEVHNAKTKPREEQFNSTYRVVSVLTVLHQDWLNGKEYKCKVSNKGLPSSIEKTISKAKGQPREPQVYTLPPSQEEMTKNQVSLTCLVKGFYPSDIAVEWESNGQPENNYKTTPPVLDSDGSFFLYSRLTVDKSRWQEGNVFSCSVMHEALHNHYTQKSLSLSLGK
light 1: SYELTQPLSVSVALGQTARITCGGDNIGNKDVHWYQQKPGQAPVLVIYRDSNRPSGIPEGFSGSNSGNTATLTISRAQAGDEADYYCQVWDSIWVFGGGTKLTVLPDIQNPDPAVYQLRDSKSSDKSVCLFTDFDSQTQVSQSKDSDVYITDKCVLDMRSMDFKSNSAVAWSQKSDFACANAFQNSIIPEDTFFPSPESS
light 2: EIVLTQSPDFQSVTPKEKVTITCSANSALSYMYWYQQKPDQSPKLWVHGTSNLASGVPSRFSGSGSGTDFTLTINSLEAEDAATYYCHHWSNTQWTFGGGTKVEIKRTVAAPSVFIFPPSDEQLKSGTASVVCLLNNFYPREAKVQWKVDNALQSGNSQESVTEQDSKDSTYSLSSTLTLSKADYEKHKVYACEVTHQGLSSPVTKSFNRGEC
notes: kept apart
EC50 [8]: 1.32 nM
IC50 [9]: 0.758 nM
IC50 [10]: 1.92 nM
fold improvement of EC50 against the benchmark antibody [11]: 1.6 fold
EC50 [12]: 0.071 nM
EC50 [13]: 7.55 nM

B3: U6T4.G26.IgG4, bispecific anti-PD-1 x CTLA-4 (bispecific antibody)
chain: EVQLLESGGGLVQPGGSLRLSCAASGFTFSSHAMSWVRQAPGKGLEWVSTITGGGGSIYYADSVKGRFTISRDNSKNTLYLQMNSLRAEDTAVYYCAKNRAGEGYFDYWGQGTLVTVLEDLKNVFPPEVAVFEPSEAEISHTQKATLVCLATGFYPDHVELSWWVNGKEVHSGVCTDPQPLKEQPALQDSRYALSSRLRVSATFWQNPRNHFRCQVQFYGLSENDEWTQDRAKPVTQIVSAEAWGRGGGGSGGGGSDIVMTQTPLSLSVTPGQPASISCRSSQSLLNSDGNTYLYWYLQKPGQSPQLLIYLVSKLGSGVPNRFSGSGSGTDFTLKISRVEAEDVGVYYCVQGTHDPWTFGGGTKVEIKRTVAAPSVFIFPPSDEQLKSGTASVVCLLNNFYPREAKVQWKVDNALQSGNSQESVTEQDSKDSTYSLSSTLTLSKADYEKHKVYACEVTHQGLSSPVTKSFNRGEC
light: B2 light 1
heavy: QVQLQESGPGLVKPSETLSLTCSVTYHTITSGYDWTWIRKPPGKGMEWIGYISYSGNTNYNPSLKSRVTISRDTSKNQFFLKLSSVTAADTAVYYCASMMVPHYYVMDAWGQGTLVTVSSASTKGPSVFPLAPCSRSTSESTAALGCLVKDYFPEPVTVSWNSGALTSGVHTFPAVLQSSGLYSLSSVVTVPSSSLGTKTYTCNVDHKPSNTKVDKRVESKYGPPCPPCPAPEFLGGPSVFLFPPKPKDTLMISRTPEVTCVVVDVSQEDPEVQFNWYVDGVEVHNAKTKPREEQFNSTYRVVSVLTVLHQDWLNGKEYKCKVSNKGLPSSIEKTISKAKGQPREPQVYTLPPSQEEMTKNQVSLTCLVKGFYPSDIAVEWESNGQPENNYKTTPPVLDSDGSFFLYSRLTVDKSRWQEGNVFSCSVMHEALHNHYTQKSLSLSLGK
notes: Light-heavy crossed chimeric Fab; first chain is U6-HC fused to T4-LC; also called U6T4 antibody pair in G26 format
EC50 [14]: 0.177 nM
EC50 [15]: 0.102 nM
EC50 [16]: 1.84 nM
EC50 [17]: 59.8 nM
